Four molecules from publication PMC4280530 (2014) can be followed below.

Assay [1] has as its target T1, Bacillus thuringiensis (Bt) Cry1Ac toxin (Bacillus thuringiensis, UniProt P05068 1-1178). Put plainly: SPR. On the technique in general: SPR reads the build-up and loss of mass on a sensor chip optically.
For assay [2], the target named is T1, Bacillus thuringiensis (Bt) Cry1Ac toxin. Nature of the assay: SPR. The source holds these as a separate data set.

T1 sequence (P05068 whole entry): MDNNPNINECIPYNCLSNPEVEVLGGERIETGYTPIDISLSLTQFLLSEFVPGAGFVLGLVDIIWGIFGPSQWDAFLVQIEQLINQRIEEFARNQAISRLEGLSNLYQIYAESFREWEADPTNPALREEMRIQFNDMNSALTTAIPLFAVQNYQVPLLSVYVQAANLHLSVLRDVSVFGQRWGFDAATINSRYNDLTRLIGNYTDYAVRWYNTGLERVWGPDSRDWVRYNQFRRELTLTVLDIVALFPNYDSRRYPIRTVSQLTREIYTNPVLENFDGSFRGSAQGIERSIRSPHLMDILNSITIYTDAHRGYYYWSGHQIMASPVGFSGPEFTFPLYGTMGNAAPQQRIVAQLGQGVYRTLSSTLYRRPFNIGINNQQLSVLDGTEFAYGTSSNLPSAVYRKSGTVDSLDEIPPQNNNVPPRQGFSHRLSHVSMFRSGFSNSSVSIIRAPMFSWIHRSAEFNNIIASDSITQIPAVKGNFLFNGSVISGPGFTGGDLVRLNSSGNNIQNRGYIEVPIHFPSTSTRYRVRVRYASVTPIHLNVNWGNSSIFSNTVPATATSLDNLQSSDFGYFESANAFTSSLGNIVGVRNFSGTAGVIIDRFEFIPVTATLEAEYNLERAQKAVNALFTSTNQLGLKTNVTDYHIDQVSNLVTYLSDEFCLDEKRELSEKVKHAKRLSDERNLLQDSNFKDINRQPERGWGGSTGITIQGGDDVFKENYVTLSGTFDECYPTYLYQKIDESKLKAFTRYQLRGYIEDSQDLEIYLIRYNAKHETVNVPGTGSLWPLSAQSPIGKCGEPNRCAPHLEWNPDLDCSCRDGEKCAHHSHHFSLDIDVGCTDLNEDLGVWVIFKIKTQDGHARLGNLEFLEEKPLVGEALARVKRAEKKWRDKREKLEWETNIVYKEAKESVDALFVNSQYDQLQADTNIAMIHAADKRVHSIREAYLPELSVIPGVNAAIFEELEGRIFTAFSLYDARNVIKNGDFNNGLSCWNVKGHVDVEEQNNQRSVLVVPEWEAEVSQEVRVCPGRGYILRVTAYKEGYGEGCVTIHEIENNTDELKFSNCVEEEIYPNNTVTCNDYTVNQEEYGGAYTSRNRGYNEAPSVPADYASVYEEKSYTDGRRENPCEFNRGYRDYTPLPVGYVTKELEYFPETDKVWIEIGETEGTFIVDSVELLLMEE

B1: anti-Cry1Ac nanobody Nb58 (VHH)
VHH: QVQLQESGGGLVQPGGSLRLSCTASGFTFSSYEMDWFRRAPGKELEWVAGITSGGEGTSYRNSVKGRFTISRDNAKNTLYLHLNSLKNEDTAMYYCAKDRRALGEVGQGTQVTVSS
On to B1, for which binding in assay [1] was put at a Kd of 23.2 nM. Besides, in assay [2], the off-rate constant (koff) (as a rule, the first-order rate constant of dissociation) stood at 0.00151 s⁻¹.

B2: anti-Cry1Ac nanobody Nb44 (VHH)
VHH: QVQLQESGGGSVQAGGSLRLSCATSGLTYSARITWFRQAPEKEREGVATFSTGSGSTGYADSVKGRFTISQDNAKNTLYLQMNNLKPEDTAMYYCAADTSTSWRDIVLVARYKYWGQGTQVTVSS
For the molecule B2, the dissociation constant (Kd) (commonly a measure of binding affinity in units of concentration) in assay [1] came out at 6.89 nM. The molecule further had a koff in assay [2] of 0.0014 s⁻¹.

B3: anti-Cry1Ac nanobody Nb61 (VHH)
VHH: QVQLQESGGGSVQAGGSLRLSCEASENTYNSVYMAWFRQAPEKEREGVAVLSTGGGRTYYTDSVKGRFTISRDNAKNMVYLQMNSLKPDDTAMYYCAATYTGDSYGPSLYYLTPGRYEYWGQGTQVTVSS
B3 gave a Kd in assay [1] of 60.9 nM. The koff in assay [2] amounted to 0.00084 s⁻¹.

B4: anti-Cry1Ac nanobody Nb59 (VHH)
VHH: QVQLQESGGGLVQPGGSLRLSCAASGFTFRDYYMTWVRQAPGQGLEWVSSISFGGGRTYYADSVKGRFTISRDNPENTLYLQLSNLKTEDTAMYYCARGRPNADYDRRGQGTQVTVSS
For B4, the Kd in assay [1] was found to be 18 nM. For the same molecule, the koff in assay [2] amounted to 0.00178 s⁻¹.
